Assay results from patent US20070020688A1, “Measurement method using biosensor” (FUJI PHOTO FILM CO., LTD., priority 2005, published 2007).

Legend:
trypsin [1] = target: T1, trypsin (Bos taurus, UniProt P00760); assay: Compound binding amount on trypsin-immobilized hydrogel-coated chip by surface plasmon resonance; conditions: for Compound binding amount (RU): compound 0.01 mM, 3 minutes
T1 construct: purchased Worthington
T1 sequence (P00760 24-246): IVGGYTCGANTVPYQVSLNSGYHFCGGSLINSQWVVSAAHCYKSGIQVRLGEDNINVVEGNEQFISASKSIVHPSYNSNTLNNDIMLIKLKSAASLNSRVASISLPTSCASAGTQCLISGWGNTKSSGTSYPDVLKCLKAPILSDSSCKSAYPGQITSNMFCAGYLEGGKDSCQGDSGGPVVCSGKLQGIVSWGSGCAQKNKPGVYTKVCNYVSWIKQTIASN
Method: Trypsin (manufactured by Worthington) was immobilized on the hydrogel-coated measurement chip produced in (2) above. Measurement was carried out using the surface plasmon resonance measurement device described in (1) above.
A mixed solution of 1-ethyl-2,3-dimethylaminopropylcarbodiimide (400 mM) and N-hydroxysuccinimide (100 mM) was added to a hydrogel-coated chip, followed by leaving at rest for 20 minutes. Thereafter, the resultant product was washed with a 10 mM phosphate buffer. Subsequently, the aforementioned trypsin solution was added thereto, followed by leaving at rest for the period of time shown in Table 1. Thereafter, the resultant product was subjected to a primary washing with a 10 mM phosphate buffer, and then subjected to a secondary washing with the washing solution shown in Table 1. Thereafter, the resultant product was further washed with a 10 mM phosphate buffer. It is to be noted that it has been known that if such a secondary washing is carried out with 10 mM NaOH, non-specifically adsorbed proteins are washed out, and a baseline drift thereby becomes stable during interaction measurement.
By the aforementioned operations, trypsin was immobilized on the surface of the measurement chip via a covalent bond. The amount by which resonance signals (RU value) obtained before the addition of trypsin and after washing had changed was defined as the immobilized amount of trypsin (RU value).
The measurement chip was washed with a 10 mM phosphate buffer, and it was then equipped in the surface plasmon resonance device of the present example. Thereafter, leupeptin (0.01 mM; phosphate buffer pH 7.4), the following kinase inhibitor, and an amphipathic compound (0.01 mM; phosphate buffer pH 7.4) were added thereto, followed by leaving at rest for 3 minutes. The amount by which resonance signals (RU value) had changed was defined as the binding amount of the compound.

trypsin [2] = target: T1, trypsin; assay: Enzyme activity of immobilized trypsin, fluorescence of decomposed Bz-Arg-MCA substrate; assay type: biochemical; conditions: for Enzyme activity (fluorescence intensity): 0.1 mM Bz-Arg-MCA, 120 minutes
Method: Using the chip on which trypsin had been immobilized as described in (1) above, the enzyme activity of trypsin was measured. […] Specifically, a substrate specific to trypsin (benzoyl-L-arginine-4-methylcoumarin-7-amide (hereinafter referred to as Bz-Arg-MCA); Peptide Institute, Inc.) was allowed to react with trypsin, and fluorescence in the decomposed product was measured.
The 10 mM phosphate buffer contained in the measurement chip was removed, and 0.1 mM Bz-Arg-MCA was then added thereto. The reaction was then carried out for 120 minutes.
Fluorescence measurement was carried out regarding fluorescence for each of the aforementioned reaction times, using the BMGLabTechnologies FLUOstar measurement device (excitation: 380 nm; and emission: 460 nm).

Molecule | Compound binding amount (RU) (trypsin [1]; Experiment No. 1: trypsin immobilized in phosphate buffer (pH 7.4), 10 mg/ml, 1 hr, secondary washing phosphate buffer (pH 7.4)) | Compound binding amount (RU) (trypsin [1]; Experiment No. 2: trypsin immobilized in phosphate buffer (pH 7.4), 2 mg/ml, 1 hr, secondary washing phosphate buffer (pH 7.4)) | Compound binding amount (RU) (trypsin [1]; Experiment No. 3: trypsin immobilized in phosphate buffer (pH 7.4), 2 mg/ml, 1 hr, secondary washing 10 mM NaOH) | Compound binding amount (RU) (trypsin [1]; Experiment No. 4: trypsin immobilized in acetate buffer (pH 5.0), 0.1 mg/ml, 0.2 hr, secondary washing phosphate buffer (pH 7.4)) | Binding to the surface, in words (trypsin [1]; surface of experiment No. 2) | Activity value (enzyme activity/immobilized amount) (trypsin [2]; Experiment No. 1) | Enzyme activity (fluorescence intensity) (trypsin [2]; Experiment No. 1: phosphate buffer (pH 7.4), 10 mg/ml, 1 hr, washing phosphate buffer (pH 7.4)) | Activity value (enzyme activity/immobilized amount) (trypsin [2]; Experiment No. 2) | Enzyme activity (fluorescence intensity) (trypsin [2]; Experiment No. 2: phosphate buffer (pH 7.4), 2 mg/ml, 1 hr, washing phosphate buffer (pH 7.4)) | Activity value (enzyme activity/immobilized amount) (trypsin [2]; Experiment No. 3) | Enzyme activity (fluorescence intensity) (trypsin [2]; Experiment No. 3: phosphate buffer (pH 7.4), 2 mg/ml, 1 hr, washing 10 mM NaOH) | Activity value (enzyme activity/immobilized amount) (trypsin [2]; Experiment No. 4) | Enzyme activity (fluorescence intensity) (trypsin [2]; Experiment No. 4: acetate buffer (pH 5.0), 0.1 mg/ml, 0.2 hr, washing phosphate buffer (pH 7.4))
CC(=O)N[C@@H](CC(C)C)C(=O)N[C@@H](CC(C)C)C(=O)N[C@H](C=O)CCCNC(=N)N [Leupeptin, leupeptin] | 25 RU | 19 RU | 8 RU | 16 RU | binds to the surface | – | – | – | – | – | – | – | –
Trypsin | – | – | – | – | – | 0.055 | 230 | 0.238 | 615 | 0.160 | 370 | 0.008 | 40
